From paper PMC13281839

Biological target: N‐terminal half of fibrillin‐1, fragment rF90 (S19‐V1527) (UniProt P35555)
Test: SPR

Chain of UniProt P35555 (P35555 45-1527): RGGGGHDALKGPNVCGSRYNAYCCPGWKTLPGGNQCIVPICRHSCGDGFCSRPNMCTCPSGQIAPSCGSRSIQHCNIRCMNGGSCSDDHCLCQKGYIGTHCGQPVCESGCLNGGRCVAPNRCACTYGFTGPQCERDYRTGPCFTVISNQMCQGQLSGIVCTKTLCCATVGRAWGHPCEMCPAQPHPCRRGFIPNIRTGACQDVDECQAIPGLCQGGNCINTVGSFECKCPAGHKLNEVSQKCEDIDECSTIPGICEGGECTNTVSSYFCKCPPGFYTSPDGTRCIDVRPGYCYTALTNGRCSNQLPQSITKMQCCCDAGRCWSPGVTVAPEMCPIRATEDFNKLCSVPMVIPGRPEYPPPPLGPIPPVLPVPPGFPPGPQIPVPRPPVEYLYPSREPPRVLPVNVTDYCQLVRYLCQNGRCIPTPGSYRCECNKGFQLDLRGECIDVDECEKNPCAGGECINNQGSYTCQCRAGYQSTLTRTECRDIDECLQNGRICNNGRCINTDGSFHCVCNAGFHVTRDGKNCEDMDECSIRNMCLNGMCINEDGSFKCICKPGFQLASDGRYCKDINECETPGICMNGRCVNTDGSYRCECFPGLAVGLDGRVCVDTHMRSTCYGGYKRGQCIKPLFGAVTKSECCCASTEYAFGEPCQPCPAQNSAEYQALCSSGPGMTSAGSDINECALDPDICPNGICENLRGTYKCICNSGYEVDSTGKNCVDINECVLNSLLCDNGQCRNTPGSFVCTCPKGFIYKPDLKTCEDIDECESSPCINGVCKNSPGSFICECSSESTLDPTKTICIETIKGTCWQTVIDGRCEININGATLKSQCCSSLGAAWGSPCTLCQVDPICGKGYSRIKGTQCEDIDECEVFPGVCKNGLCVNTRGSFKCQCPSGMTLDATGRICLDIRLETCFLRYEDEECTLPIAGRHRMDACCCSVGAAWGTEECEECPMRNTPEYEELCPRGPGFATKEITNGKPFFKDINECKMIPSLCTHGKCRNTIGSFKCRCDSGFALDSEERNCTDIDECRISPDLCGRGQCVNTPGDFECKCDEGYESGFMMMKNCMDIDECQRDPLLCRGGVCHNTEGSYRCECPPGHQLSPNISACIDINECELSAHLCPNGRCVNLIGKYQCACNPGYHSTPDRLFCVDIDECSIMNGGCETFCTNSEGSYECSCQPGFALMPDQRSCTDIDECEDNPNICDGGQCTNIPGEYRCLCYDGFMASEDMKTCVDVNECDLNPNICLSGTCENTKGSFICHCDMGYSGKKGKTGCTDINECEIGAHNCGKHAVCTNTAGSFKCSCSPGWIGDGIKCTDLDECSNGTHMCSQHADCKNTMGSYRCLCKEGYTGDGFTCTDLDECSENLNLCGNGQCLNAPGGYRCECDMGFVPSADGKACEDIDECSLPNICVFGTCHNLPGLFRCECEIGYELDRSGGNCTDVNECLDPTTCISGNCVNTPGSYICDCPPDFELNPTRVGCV

## BMP‐7 CPLX (BMP‐7 growth factor‐prodomain complex) (from UniProt P18075 293-431)
  Kd: 7 nM
